# B1: 12345: recombinant full length human β2GPI (domains 1-5) with C-terminal GlyHis6, baculovirus expressed (protein)
# chain: GRTCPKPDDLPFSTVVPLKTFYEPGEEITYSCKPGYVSRGGMRKFICPLTGLWPINTLKCTPRVCPFAGILENGAVRYTTFEYPNTISFSCNTGFYLNGADSAKCTEEGKWSPELPVCAPIICPPPSIPTFATLRVYKPSAGNNSLYRDTAVFECLPQHAMFGNDTITCTTHGNWTKLPECREVKCPFPSRPDNGFVNYPAKPTLYYKDKATFGCHDGYSLDGPEEIECTKLGNWSAMPSCKASCKLPVKKATVVYQGERVKIQEKFKNGMLHGDKVSFFCKNKEKKCSYTEDAQCIDGTIEVPKCFKEHSSLAFWKTDASDVKPCGHHHHHH
# B2: -2345: recombinant β2GPI deletion mutant with domains 2-5 (protein)
# chain: GRTPRVCPFAGILENGAVRYTTFEYPNTISFSCNTGFYLNGADSAKCTEEGKWSPELPVCAPIICPPPSIPTFATLRVYKPSAGNNSLYRDTAVFECLPQHAMFGNDTITCTTHGNWTKLPECREVKCPFPSRPDNGFVNYPAKPTLYYKDKATFGCHDGYSLDGPEEIECTKLGNWSAMPSCKASCKLPVKKATVVYQGERVKIQEKFKNGMLHGDKVSFFCKNKEKKCSYTEDAQCIDGTIEVPKCFKEHSSLAFWKTDASDVKPCGHHHHHH
# How the values were obtained:
# APS patient plasma = test: Surface plasmon resonance (BIAcore): APS patient plasma/serum over immobilized β2GPI proteins; type: binding, human; design: key: Req = fitted equilibrium plateau BIAcore response; conditions: for Median Req / Req (mean ± sem): serum of 106 APS patients (GPL ≧ 20); for Req (mean ± sem): diluted 1:1
# Description: (§1) Reagents. CM5 chips, NHS and EDC and HBS-EP buffer were from BIAcore. Human haptoglobin (phenotyope 1—1), a protein containing the short consensus repeat motif found in β2GPI, was immobilized in a separate flow cell on the chip and used as a negative control. Recombinant β2GPI and domain-deletion mutants of β2GPI were expressed in Tn5 cells using the baculovirus protein expression system and purified from the supernatants by nickel-chelation affinity column. Iverson et al. (1998) Proc. Natl. Acad. Sci. USA 95:15542-15546. Normal human plasma samples were purchased (George King Biomedical) or obtained in-house. Patient plasma samples from individuals diagnosed with either primary or secondary (to lupus) antiphospholipid antibody syndrome were obtained from a number of clinical sources.
# (§2) The 55 controls used in this study were derived from a heterogenous sample. Thirty control samples (15 male; 15 female; mean age 34 yrs, range 19-45 yrs) purchased from George King Bio-Medical (Overland Park, Kans.), 5 local volunteers (3 male, 2 female), 2 pooled commercial sources and 18 blood bank donors of unknown origin were included in the analysis. The patient samples were collected from several sources and included patients with histories of venous thrombosis, arterial occlusions, cerebrovascular occlusions, multiple miscarriages and thrombocytopenia. All patients included in the study had IgG antiphospholipid antibody level (GPL) levels>20 by internal assay.
# Total IgG fraction was isolated from plasma using Immunopure Plus protein G agarose beads and Immunopure IgG binding and elution buffers according to the manufacturers recommendation (Pierce).
# (§3) Surface Plasmon Resonance. All experiments were performed using a BIAcore™ 2000 instrument at 25° C. with a flow rate of 10 μL/minute. Chip equilibration and binding studies were performed with degassed HBS-EP buffer, which consists of 0.01 M HEPES pH 7.4, 0.15 M NaCl, 3 mM EDTA and 0.005% (v/v) surfactant P20. Covalent coupling of protein ligands through their free amino groups to the CM5 chip was accomplished by flowing 40 μL of 0.05 M NHS/0.2M EDC over the chip to activate the chip, followed by exposure to the appropriate protein ligand. Recombinant β2GPI(His)6, domain-deletion mutants of β2GPI and haptoglobin were immobilized by flowing 50 μL of a 25 μg/mL solution in 10 mM acetate, (pH 4.8) over the NHS-activated CM5 chip. The excess reactive groups on the chip surface are then quenched with 40 μL of 1 M ethanoloamine, (pH 8.5). Human plasma samples (130 μL) were diluted 1:1 with HBS-EP, flowed over the β2GPI chip, and response values were collected for 780 seconds. The chips were regenerated between sample exposures with 80 μL of 0.1 M glycine-HCl (pH 2.1), 0.1 M NaCl. Since the approach to binding equilibrium was incomplete during the measurement period, the equilibrium binding value (Req) was determined by fitting the association curves to the following equation using the manufacturers software (BiaEvaluation version 2.2, Uppsala, Sweden) Rt=Req(I−e^−ks(t−t0))+R0 where Rt is the measured BIAcore response at time t, Req is the equilibrium plateau response, t is time, t0 is initial time, k, is an apparent association constant (ks=kaC+kdis, where ka is the association constant, C is the analyte concentration and kdis is the dissociation constant), and R0 is a response offset. In some experiments total IgG fractions from human plasma samples were obtained from binding to and acid elution from protein G. The plasma remaining after binding to protein G was remixed with fresh protein G beads and isolated as IgG-stripped plasma. Neutralized IgG preparations and IgG-stripped plasma diluted 1:1 with buffer were flowed over the β2GPI chip as described above. Results and Discussion
# Normal human plasma = test: Surface plasmon resonance (BIAcore): control plasma/serum over immobilized β2GPI proteins; type: binding; conditions: serum of 55 controls; for Req (mean ± sem): diluted 1:1
# Description: as §1, §2
# as §3, with “Neutralized IgG preparations and IgG-stripped plasma diluted 1:1 with buffer were flowed over the β2GPI chip as described above. Results and Discussion” left out
# [1] = non-selective patient 6117, IgG-stripped Plasma (1:2)
# [2] = non-selective patient 6117, Total IgG (1:4)
# [3] = non-selective patient 6117, Whole Plasma (1:2)
# [4] = non-selective patient 6194, IgG-stripped Plasma (1:2)
# [5] = non-selective patient 6194, Total IgG (1:4)
# [6] = non-selective patient 6194, Whole Plasma (1:2)
# [7] = non-selective patient 6611, IgG-stripped Plasma (1:2)
# [8] = non-selective patient 6611, Total IgG (1:4)
# [9] = non-selective patient 6611, Whole Plasma (1:2)
# [10] = non-selective patient 6627, IgG-stripped Plasma (1:2)
# [11] = non-selective patient 6627, Total IgG (1:4)
# [12] = non-selective patient 6627, Whole Plasma (1:2)
# [13] = non-selective patient 6649, IgG-stripped Plasma (1:2)
# [14] = non-selective patient 6649, Total IgG (1:4)
# [15] = non-selective patient 6649, Whole Plasma (1:2)
# [16] = non-selective patient 7013, IgG-stripped Plasma (1:2)
# [17] = non-selective patient 7013, Total IgG (1:4)
# [18] = non-selective patient 7013, Whole Plasma (1:2)
# [19] = patient 6207, IgG-stripped Plasma (1:2)
# [20] = patient 6207, Whole Plasma (1:2)
# [21] = patient 6501, IgG-stripped Plasma (1:2)
# [22] = patient 6501, Whole Plasma (1:2)
# [23] = patient 6515, IgG-stripped Plasma (1:2)
# [24] = patient 6515, Whole Plasma (1:2)
# [25] = patient 6601, IgG-stripped Plasma (1:2)
# [26] = patient 6601, Whole Plasma (1:2)
# [27] = patient 6626, IgG-stripped Plasma (1:2)
# [28] = patient 6626, Whole Plasma (1:2)
# [29] = patient 6642, IgG-stripped Plasma (1:2)
# [30] = patient 6642, Whole Plasma (1:2)
# [31] = patient 6701, IgG-stripped Plasma (1:2)
# [32] = patient 6701, Whole Plasma (1:2)
# [33] = patient 6703, IgG-stripped Plasma (1:2)
# [34] = patient 6703, Whole Plasma (1:2)
# [35] = patient 7015, IgG-stripped Plasma (1:2)
# [36] = patient 7015, Whole Plasma (1:2)
# [37] = patient 7201, IgG-stripped Plasma (1:2)
# [38] = patient 7201, Whole Plasma (1:2)
molecule,measurement,setting,value
B1,BIAcore Req,APS patient plasma; [1],0
same,BIAcore Req,APS patient plasma; [2],120
same,BIAcore Req,APS patient plasma; [3],324
same,BIAcore Req,APS patient plasma; [4],0
same,BIAcore Req,APS patient plasma; [5],470
same,BIAcore Req,APS patient plasma; [6],2046
same,BIAcore Req,APS patient plasma; [7],0
same,BIAcore Req,APS patient plasma; [8],251
same,BIAcore Req,APS patient plasma; [9],892
same,BIAcore Req,APS patient plasma; [10],0
same,BIAcore Req,APS patient plasma; [11],132
same,BIAcore Req,APS patient plasma; [12],324
same,BIAcore Req,APS patient plasma; [13],0
same,BIAcore Req,APS patient plasma; [14],253
same,BIAcore Req,APS patient plasma; [15],758
same,BIAcore Req,APS patient plasma; [16],0
same,BIAcore Req,APS patient plasma; [17],115
same,BIAcore Req,APS patient plasma; [18],241
same,BIAcore Req,APS patient plasma; [19],0
same,BIAcore Req,"APS patient plasma; patient 6207, Total IgG (1:4)",480
same,BIAcore Req,APS patient plasma; [20],1450
same,BIAcore Req,APS patient plasma; [21],0
same,BIAcore Req,"APS patient plasma; patient 6501, Total IgG (1:4)",732
same,BIAcore Req,APS patient plasma; [22],1526
same,BIAcore Req,APS patient plasma; [23],0
same,BIAcore Req,"APS patient plasma; patient 6515, Total IgG (1:4)",440
same,BIAcore Req,APS patient plasma; [24],1024
same,BIAcore Req,APS patient plasma; [25],0
same,BIAcore Req,"APS patient plasma; patient 6601, Total IgG (1:4)",266
same,BIAcore Req,APS patient plasma; [26],792
same,BIAcore Req,APS patient plasma; [27],49
same,BIAcore Req,"APS patient plasma; patient 6626, Total IgG (1:4)",1132
same,BIAcore Req,APS patient plasma; [28],1622
same,BIAcore Req,APS patient plasma; [29],48
same,BIAcore Req,"APS patient plasma; patient 6642, Total IgG (1:4)",480
same,BIAcore Req,APS patient plasma; [30],811
same,BIAcore Req,APS patient plasma; [31],0
same,BIAcore Req,"APS patient plasma; patient 6701, Total IgG (1:4)",460
same,BIAcore Req,APS patient plasma; [32],952
same,BIAcore Req,APS patient plasma; [33],0
same,BIAcore Req,"APS patient plasma; patient 6703, Total IgG (1:4)",556
same,BIAcore Req,APS patient plasma; [34],1001
same,BIAcore Req,APS patient plasma; [35],0
same,BIAcore Req,"APS patient plasma; patient 7015, Total IgG (1:4)",864
same,BIAcore Req,APS patient plasma; [36],2092
same,BIAcore Req,APS patient plasma; [37],0
same,BIAcore Req,"APS patient plasma; patient 7201, Total IgG (1:4)",292
same,BIAcore Req,APS patient plasma; [38],603
same,Median Req,APS patient plasma,635
same,Req (mean ± sem),APS patient plasma; listed as D1-5,730 ± 42
same,Req (mean ± sem),APS patient plasma; listed as β2-GPI(D1-5),730
same,Median Req,Normal human plasma,201
same,Req (mean ± sem),Normal human plasma; listed as D1-5,328 ± 52
same,Req (mean ± sem),Normal human plasma; listed as β2-GPI(D1-5),328
B2,Req,APS patient plasma; 43/106 APS patients with negligible interaction,< 9
same,BIAcore Req,APS patient plasma; [1],0
same,BIAcore Req,APS patient plasma; [2],79
same,BIAcore Req,APS patient plasma; [3],386
same,BIAcore Req,APS patient plasma; [4],0
same,BIAcore Req,APS patient plasma; [5],688
same,BIAcore Req,APS patient plasma; [6],3197
same,BIAcore Req,APS patient plasma; [7],0
same,BIAcore Req,APS patient plasma; [8],177
same,BIAcore Req,APS patient plasma; [9],1002
same,BIAcore Req,APS patient plasma; [10],0
same,BIAcore Req,APS patient plasma; [11],182
same,BIAcore Req,APS patient plasma; [12],549
same,BIAcore Req,APS patient plasma; [13],0
same,BIAcore Req,APS patient plasma; [14],127
same,BIAcore Req,APS patient plasma; [15],553
same,BIAcore Req,APS patient plasma; [16],0
same,BIAcore Req,APS patient plasma; [17],75
same,BIAcore Req,APS patient plasma; [18],167
same,BIAcore Req,APS patient plasma; [19],0
same,BIAcore Req,"APS patient plasma; patient 6207, Total IgG (1:4)",0
same,BIAcore Req,APS patient plasma; [20],19
same,BIAcore Req,APS patient plasma; [21],0
same,BIAcore Req,"APS patient plasma; patient 6501, Total IgG (1:4)",0
same,BIAcore Req,APS patient plasma; [22],333
same,BIAcore Req,APS patient plasma; [23],0
same,BIAcore Req,"APS patient plasma; patient 6515, Total IgG (1:4)",0
same,BIAcore Req,APS patient plasma; [24],259
same,BIAcore Req,APS patient plasma; [25],0
same,BIAcore Req,"APS patient plasma; patient 6601, Total IgG (1:4)",0
same,BIAcore Req,APS patient plasma; [26],84
same,BIAcore Req,APS patient plasma; [27],0
same,BIAcore Req,"APS patient plasma; patient 6626, Total IgG (1:4)",0
same,BIAcore Req,APS patient plasma; [28],37
same,BIAcore Req,APS patient plasma; [29],0
same,BIAcore Req,"APS patient plasma; patient 6642, Total IgG (1:4)",0
same,BIAcore Req,APS patient plasma; [30],8
same,BIAcore Req,APS patient plasma; [31],0
same,BIAcore Req,"APS patient plasma; patient 6701, Total IgG (1:4)",0
same,BIAcore Req,APS patient plasma; [32],199
same,BIAcore Req,APS patient plasma; [33],0
same,BIAcore Req,"APS patient plasma; patient 6703, Total IgG (1:4)",0
same,BIAcore Req,APS patient plasma; [34],65
same,BIAcore Req,APS patient plasma; [35],0
same,BIAcore Req,"APS patient plasma; patient 7015, Total IgG (1:4)",0
same,BIAcore Req,APS patient plasma; [36],158
same,BIAcore Req,APS patient plasma; [37],0
same,BIAcore Req,"APS patient plasma; patient 7201, Total IgG (1:4)",0
same,BIAcore Req,APS patient plasma; [38],0
same,Median Req,APS patient plasma,24
same,Req (mean ± sem),APS patient plasma,158 ± 36
same,Median Req,Normal human plasma,103
same,Req (mean ± sem),Normal human plasma,160 ± 26
